According to the supplement of paper PMC10065799, “High-throughput profiling of sequence recognition by tyrosine kinases and SH2 domains using bacterial peptide display” (eLife, 2023):

Assays:
[1] = biological target: c-Src SH2; experiment: SH2 binding enrichment of the phosphorylated peptide, bacterial display (enrichment ratio); higher = better substrate or ligand; peptides without Tyr show the background
[2] = biological target: SHP2-C SH2; experiment: as above
[3] = biological target: Grb2 SH2 (UniProt P62993); experiment: as above
[4] = test system: AncSZ; experiment: phosphorylation enrichment, bacterial display (enrichment ratio); higher = better substrate or ligand; peptides without Tyr show the background
[5] = biological target: Hck (UniProt P08631); experiment: as above
[6] = test system: c-Abl (mouse); experiment: as above
[7] = biological target: FGFR3 (UniProt P22607); experiment: as above
[8] = biological target: Jak2 (UniProt O60674); experiment: as above
[9] = biological target: Fyn (UniProt P06241); experiment: as above
[10] = test system: c-Src; experiment: as above
[11] = biological target: EPHB2 (UniProt P29323); experiment: as above
[12] = test system: Fer (mouse); experiment: as above
[13] = biological target: Fes (UniProt P07332); experiment: as above
[14] = biological target: MERTK (UniProt Q12866); experiment: as above
[15] = biological target: FGFR1 (UniProt P11362); experiment: as above
[16] = biological target: EPHB1 (UniProt P54762); experiment: as above
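Throughout, for SH2 binding enrichment of the phosphorylated peptide, bacterial display: peptide library displayed on the E. coli surface as eCPX fusions, selected cells deep-sequenced, score is each peptide's frequency after selection divided by its frequency in the input.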
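Throughout, for phosphorylation enrichment, bacterial display: 11-residue human phosphosite peptides and single-mutation variants displayed on the E. coli surface, counted by deep sequencing, each peptide's frequency after selection divided by its frequency in the unselected input library; frequency after pTyr selection over input frequency; kinase dosed for 20-30% of maximal phosphorylation in three min.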

MERTK, sequence (Q12866 whole entry, looked up): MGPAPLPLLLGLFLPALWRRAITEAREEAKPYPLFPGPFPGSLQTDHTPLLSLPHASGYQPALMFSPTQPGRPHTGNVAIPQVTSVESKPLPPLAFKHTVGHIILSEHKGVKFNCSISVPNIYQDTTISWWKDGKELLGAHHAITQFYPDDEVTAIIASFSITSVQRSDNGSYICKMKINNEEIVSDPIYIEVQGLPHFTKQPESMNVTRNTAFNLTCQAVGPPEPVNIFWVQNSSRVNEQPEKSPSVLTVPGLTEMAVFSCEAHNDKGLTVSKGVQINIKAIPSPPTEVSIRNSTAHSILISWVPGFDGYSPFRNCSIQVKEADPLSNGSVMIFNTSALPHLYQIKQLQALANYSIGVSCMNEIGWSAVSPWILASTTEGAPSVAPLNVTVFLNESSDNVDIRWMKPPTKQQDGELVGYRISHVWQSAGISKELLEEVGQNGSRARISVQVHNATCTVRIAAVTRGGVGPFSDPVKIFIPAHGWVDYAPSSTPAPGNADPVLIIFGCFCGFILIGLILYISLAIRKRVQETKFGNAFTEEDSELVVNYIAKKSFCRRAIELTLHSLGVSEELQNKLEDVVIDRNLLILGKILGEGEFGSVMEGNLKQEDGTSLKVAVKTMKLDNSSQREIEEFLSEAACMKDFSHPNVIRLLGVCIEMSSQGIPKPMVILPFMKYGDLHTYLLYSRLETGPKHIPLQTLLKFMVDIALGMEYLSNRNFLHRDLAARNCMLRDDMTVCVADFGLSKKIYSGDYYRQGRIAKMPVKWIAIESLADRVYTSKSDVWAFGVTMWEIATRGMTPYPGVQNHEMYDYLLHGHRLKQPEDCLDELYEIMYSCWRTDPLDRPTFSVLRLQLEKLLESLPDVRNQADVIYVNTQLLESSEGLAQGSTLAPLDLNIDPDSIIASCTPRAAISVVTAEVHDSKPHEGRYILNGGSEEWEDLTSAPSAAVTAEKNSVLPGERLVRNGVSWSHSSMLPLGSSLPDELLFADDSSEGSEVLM
Hck, sequence (P08631 whole entry, looked up): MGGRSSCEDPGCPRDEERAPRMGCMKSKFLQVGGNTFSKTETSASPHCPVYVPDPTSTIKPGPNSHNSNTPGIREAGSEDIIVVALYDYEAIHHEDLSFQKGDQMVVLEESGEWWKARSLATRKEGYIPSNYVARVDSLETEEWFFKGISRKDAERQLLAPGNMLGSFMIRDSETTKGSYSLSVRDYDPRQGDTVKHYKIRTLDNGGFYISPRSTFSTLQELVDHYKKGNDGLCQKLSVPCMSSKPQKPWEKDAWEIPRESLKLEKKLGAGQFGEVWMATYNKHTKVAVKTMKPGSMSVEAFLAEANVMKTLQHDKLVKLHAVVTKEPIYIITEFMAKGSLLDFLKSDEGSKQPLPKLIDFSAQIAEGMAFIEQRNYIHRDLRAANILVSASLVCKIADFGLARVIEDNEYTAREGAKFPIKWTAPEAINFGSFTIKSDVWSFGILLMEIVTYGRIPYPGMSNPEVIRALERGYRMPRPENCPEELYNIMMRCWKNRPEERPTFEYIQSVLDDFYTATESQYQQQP
FGFR3, sequence (P22607 whole entry, looked up): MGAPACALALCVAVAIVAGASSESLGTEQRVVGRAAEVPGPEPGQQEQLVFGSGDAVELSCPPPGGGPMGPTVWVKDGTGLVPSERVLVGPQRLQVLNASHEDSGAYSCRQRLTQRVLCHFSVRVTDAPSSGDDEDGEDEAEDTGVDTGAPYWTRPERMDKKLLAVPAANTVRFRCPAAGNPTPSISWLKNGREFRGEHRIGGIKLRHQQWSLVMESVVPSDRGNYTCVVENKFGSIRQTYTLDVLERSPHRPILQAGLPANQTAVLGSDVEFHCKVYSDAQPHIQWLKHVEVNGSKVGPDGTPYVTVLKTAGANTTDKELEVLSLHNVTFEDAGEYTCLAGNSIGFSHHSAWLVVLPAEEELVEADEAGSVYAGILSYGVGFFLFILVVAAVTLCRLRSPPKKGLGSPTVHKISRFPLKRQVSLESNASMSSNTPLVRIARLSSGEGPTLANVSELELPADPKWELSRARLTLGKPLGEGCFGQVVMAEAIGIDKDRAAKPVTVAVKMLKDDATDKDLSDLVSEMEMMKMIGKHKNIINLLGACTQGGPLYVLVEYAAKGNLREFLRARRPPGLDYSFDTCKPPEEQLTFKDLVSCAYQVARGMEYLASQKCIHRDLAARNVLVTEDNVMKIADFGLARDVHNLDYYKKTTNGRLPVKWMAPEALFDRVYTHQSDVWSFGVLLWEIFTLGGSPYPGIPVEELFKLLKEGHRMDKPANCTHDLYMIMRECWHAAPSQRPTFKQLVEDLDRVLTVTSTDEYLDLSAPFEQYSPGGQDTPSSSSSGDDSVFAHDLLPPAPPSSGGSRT
Fes, sequence (P07332 whole entry, looked up): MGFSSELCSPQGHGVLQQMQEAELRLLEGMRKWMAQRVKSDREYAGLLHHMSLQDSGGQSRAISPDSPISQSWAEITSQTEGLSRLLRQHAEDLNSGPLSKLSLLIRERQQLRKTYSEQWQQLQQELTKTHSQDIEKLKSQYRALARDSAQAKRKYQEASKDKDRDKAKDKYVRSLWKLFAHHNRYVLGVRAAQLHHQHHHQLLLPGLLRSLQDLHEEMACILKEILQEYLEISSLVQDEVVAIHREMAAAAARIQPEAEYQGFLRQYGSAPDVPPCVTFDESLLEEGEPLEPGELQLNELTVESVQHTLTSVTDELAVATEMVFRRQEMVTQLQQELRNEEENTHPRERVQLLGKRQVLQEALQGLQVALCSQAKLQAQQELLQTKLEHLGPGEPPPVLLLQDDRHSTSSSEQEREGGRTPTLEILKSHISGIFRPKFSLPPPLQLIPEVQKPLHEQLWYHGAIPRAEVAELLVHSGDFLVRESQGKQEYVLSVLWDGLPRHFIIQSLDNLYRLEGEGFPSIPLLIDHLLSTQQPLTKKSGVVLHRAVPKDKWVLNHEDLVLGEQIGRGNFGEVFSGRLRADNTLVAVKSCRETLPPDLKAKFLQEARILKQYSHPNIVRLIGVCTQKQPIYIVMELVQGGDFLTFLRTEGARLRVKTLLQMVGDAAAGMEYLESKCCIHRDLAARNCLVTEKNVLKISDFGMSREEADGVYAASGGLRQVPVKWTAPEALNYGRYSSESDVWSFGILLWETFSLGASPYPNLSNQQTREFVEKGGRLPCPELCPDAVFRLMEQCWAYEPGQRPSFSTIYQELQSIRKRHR
Fyn, sequence (P06241 whole entry, looked up): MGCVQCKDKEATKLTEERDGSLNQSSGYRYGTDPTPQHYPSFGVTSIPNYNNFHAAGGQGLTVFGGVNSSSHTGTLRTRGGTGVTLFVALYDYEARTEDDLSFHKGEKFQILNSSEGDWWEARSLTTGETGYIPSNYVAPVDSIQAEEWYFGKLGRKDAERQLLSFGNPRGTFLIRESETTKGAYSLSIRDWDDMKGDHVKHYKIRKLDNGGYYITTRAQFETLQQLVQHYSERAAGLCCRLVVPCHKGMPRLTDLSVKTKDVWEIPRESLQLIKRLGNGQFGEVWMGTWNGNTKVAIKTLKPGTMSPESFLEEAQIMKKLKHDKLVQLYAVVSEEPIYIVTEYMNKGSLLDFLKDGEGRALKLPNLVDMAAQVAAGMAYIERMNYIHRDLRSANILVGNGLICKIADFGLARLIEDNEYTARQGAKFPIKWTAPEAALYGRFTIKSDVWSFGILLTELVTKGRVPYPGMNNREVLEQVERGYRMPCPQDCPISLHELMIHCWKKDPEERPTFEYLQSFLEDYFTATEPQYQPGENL
EPHB2, sequence (P29323 whole entry, looked up): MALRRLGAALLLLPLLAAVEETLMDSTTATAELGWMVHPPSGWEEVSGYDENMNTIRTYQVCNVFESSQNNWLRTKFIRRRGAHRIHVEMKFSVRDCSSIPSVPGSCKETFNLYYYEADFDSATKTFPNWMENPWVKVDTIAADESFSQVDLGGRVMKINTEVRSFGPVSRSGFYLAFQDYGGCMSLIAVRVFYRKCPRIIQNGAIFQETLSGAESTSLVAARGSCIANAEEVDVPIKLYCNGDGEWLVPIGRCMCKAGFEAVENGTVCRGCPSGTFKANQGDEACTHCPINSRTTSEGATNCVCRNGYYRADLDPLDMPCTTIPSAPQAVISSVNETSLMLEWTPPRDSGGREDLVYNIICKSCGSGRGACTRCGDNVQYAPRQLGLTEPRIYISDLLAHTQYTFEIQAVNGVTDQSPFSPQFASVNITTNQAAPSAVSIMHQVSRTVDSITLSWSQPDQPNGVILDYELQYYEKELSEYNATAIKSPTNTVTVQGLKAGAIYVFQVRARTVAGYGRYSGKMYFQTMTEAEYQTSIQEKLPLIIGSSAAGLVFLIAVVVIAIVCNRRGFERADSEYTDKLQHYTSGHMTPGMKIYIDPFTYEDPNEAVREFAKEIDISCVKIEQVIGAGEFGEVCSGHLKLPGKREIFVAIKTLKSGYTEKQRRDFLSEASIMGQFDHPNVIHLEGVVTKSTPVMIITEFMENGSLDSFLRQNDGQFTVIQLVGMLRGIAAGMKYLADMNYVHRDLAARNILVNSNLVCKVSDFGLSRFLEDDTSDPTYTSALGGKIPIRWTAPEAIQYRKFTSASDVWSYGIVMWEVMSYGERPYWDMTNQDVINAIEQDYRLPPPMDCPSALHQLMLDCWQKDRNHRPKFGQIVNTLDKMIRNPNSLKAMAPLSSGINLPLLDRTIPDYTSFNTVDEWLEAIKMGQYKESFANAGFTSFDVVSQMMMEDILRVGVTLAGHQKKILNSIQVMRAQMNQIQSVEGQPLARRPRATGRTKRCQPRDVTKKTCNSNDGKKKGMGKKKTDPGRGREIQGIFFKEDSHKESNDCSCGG
Grb2 SH2, sequence (P62993 whole entry, looked up): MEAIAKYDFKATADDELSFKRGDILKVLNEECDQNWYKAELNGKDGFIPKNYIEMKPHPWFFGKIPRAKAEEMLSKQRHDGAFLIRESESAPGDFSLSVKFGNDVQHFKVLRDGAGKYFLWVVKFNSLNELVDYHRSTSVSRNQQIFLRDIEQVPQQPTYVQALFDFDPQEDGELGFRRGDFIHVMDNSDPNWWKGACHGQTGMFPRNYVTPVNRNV

Sequence | SH2 binding enrichment [1] | SH2 binding enrichment [2] | SH2 binding enrichment [3] | phosphorylation enrichment [4] | phosphorylation enrichment [5] | phosphorylation enrichment [6] | phosphorylation enrichment [7] | phosphorylation enrichment [8] | phosphorylation enrichment [9] | phosphorylation enrichment [10] | phosphorylation enrichment [11] | phosphorylation enrichment [12] | phosphorylation enrichment [13] | phosphorylation enrichment [14] | phosphorylation enrichment [15] | phosphorylation enrichment [16]
NNDLCYWVLEL [IARS1_Y434_P437L] | 0.55 | 0.518 | 0.664 | 2.47 | 4.01 | 1.31 | 7.8 | 3.65 | 5.45 | 5.34 | 1.05 | 1.33 | 1.88 | 2.33 | 7.77 | 1.37
NNRVFYGNSDR [RS1_Y177] | 0.505 | 0.735 | 0.852 | 0.437 | 0.337 | 0.499 | 0.411 | 0.546 | 0.395 | 0.414 | 0.378 | 0.338 | 0.536 | 0.315 | 0.375 | 0.284
NNTFLYQLVFD [EXO1_Y284] | 1.14 | 1.15 | 1.44 | 1.35 | 2.58 | 0.684 | 1.72 | 1.14 | 1.7 | 2.28 | 4.11 | 4.67 | 1.21 | 5.99 | 1.65 | 5.34
NPQKPYFIRLY [WAS_Y83_S82P] | 0.542 | 0.699 | 0.909 | 1.01 | 0.443 | 0.544 | 0.675 | 0.906 | 0.354 | 0.303 | 0.599 | 0.474 | 1.08 | 0.344 | 0.395 | 0.561
NPQKSCFIRLY [WAS_Y83_Y83C] | 0.533 | 0.654 | 0.783 | 1.02 | 0.494 | 0.783 | 0.769 | 1.07 | 0.504 | 0.403 | 0.503 | 0.481 | 1.14 | 0.396 | 0.441 | 0.597
NPQKSYFILLF [WAS_Y83_R86L_YF] | 0.573 | 0.944 | 1.27 | 0.836 | 0.43 | 0.606 | 0.906 | 1.05 | 0.449 | 0.337 | 0.551 | 0.414 | 0.969 | 0.398 | 1.01 | 0.546
NQILPYIEELV [PPP2R1B_Y341_K343E] | 0.725 | 0.953 | 0.979 | 1.37 | 0.568 | 0.875 | 0.781 | 1.45 | 0.53 | 0.507 | 0.644 | 0.931 | 1.28 | 0.504 | 0.533 | 0.673
NTCNRYCCDEI [ITGB3_Y660_R662C] | 0.557 | 0.752 | 0.841 | 1.44 | 0.574 | 1.03 | 0.88 | 1.43 | 0.577 | 0.541 | 0.594 | 0.612 | 1.49 | 0.538 | 0.595 | 0.694
NTGDFCDLFGG [PTPN11_Y63_Y63C_YF] | 0.632 | 0.823 | 1.15 | 1.01 | 0.578 | 0.655 | 0.653 | 0.969 | 0.499 | 0.413 | 0.555 | 0.487 | 1.11 | 0.486 | 0.511 | 0.584
NTQRPHYKGGG [TYROBP_Y111_Y111H] | 1.01 | 1.77 | 1.44 | 0.428 | 0.384 | 0.605 | 0.486 | 0.491 | 0.402 | 0.361 | 0.332 | 0.422 | 0.549 | 0.391 | 0.316 | 0.326
NVLPEYKLQAP [KCNH2_Y388_D383N] | 0.455 | 0.564 | 0.906 | 0.784 | 0.527 | 0.677 | 0.619 | 0.813 | 0.508 | 0.439 | 0.632 | 0.402 | 0.949 | 0.43 | 0.411 | 0.518
NVSILYTASQA [CTNNA1_Y222_P219S] | 0.499 | 0.685 | 0.921 | 0.892 | 0.547 | 0.787 | 0.725 | 0.95 | 0.447 | 0.531 | 0.51 | 0.629 | 1.02 | 0.505 | 0.434 | 0.548
NVVNEYSSELE [FGB_Y172] | 0.556 | 0.463 | 0.932 | 1.19 | 0.628 | 0.717 | 0.769 | 0.99 | 0.515 | 0.482 | 0.627 | 0.515 | 1.25 | 0.422 | 0.565 | 0.611
NVVQEYERVII [NPHS2_Y131_K126N] | 0.557 | 0.831 | 0.978 | 1.17 | 0.589 | 0.633 | 0.668 | 0.772 | 0.47 | 0.485 | 2.22 | 4.44 | 0.942 | 0.442 | 0.59 | 2.13
NYNPNYCFAGK [ALK_Y1096_D1091N] | 0.55 | 0.878 | 0.868 | 1.26 | 0.433 | 0.803 | 0.642 | 0.856 | 0.57 | 0.564 | 1.27 | 0.597 | 0.879 | 1.1 | 0.563 | 3.98
PADSGYPAYLG [ATP6V1A_Y374] | 0.614 | 0.62 | 1.11 | 1.18 | 0.735 | 1.14 | 0.892 | 0.823 | 1.05 | 0.592 | 0.468 | 0.798 | 1.51 | 0.417 | 0.755 | 1.77
PAGSGYPAYLG [ATP6V1A_Y374_D371G] | 0.396 | 0.688 | 0.884 | 0.782 | 0.645 | 0.525 | 0.914 | 0.727 | 0.574 | 0.417 | 0.638 | 0.866 | 0.752 | 0.442 | 1.17 | 1.22
